Measured values from paper PMC5794975, “Mapping the interaction site and effect of the Siglec-9 inflammatory biomarker on human primary amine oxidase” (Scientific Reports, 2018).
Bridges are numbered along the chain shown (N, C = ends). Where no end group is shown, it is not given here.

T1: Human primary amine oxidase (hAOC3), recombinant (human, UniProt Q16853 1-763, topaquinone (TPQ; 2,4,5-trihydroxyphenylalanine quinone, a post-translationally modified tyrosine); N-glycans at Asn137, Asn232, Asn294, Asn592, Asn618, Asn666)
T1 sequence (looked up): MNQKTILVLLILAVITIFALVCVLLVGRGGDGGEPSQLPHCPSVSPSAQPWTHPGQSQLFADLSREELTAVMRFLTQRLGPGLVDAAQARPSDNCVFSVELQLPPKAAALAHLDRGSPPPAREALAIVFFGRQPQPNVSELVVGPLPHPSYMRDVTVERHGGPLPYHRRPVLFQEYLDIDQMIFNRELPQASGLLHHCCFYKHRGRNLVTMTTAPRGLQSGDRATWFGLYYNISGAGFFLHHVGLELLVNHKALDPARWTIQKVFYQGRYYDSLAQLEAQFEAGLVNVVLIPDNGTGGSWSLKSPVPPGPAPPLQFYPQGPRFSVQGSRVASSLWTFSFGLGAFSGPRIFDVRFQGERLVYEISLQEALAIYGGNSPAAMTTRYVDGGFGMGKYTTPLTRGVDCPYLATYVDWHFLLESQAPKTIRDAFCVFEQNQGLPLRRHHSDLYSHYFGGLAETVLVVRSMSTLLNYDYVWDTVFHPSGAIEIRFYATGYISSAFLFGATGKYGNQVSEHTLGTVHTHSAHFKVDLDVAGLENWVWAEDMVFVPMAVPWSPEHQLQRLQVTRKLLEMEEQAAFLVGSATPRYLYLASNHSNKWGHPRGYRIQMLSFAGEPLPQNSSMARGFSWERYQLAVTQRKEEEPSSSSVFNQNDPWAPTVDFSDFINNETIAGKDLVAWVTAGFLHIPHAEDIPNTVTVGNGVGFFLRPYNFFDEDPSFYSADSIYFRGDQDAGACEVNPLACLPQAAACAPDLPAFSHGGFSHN


target: T1, Human primary amine oxidase (hAOC3), …; test: cell-based or functional assay

| Binder | activity of hAOC3-expressing CHO cells towards [7-14C]benzylamine with 5 µM peptide, percent of the control without peptide [%] |
| --- | --- |
| CARLSLSWRGLTLCPSK (disulfide 1-14) [cyclic Siglec-9 peptide (CARLSLSWRGLTLCPSK)] | 127 |
| CAALSLSWAGLTLCPSK (disulfide 1-14) [R3A/R9A Siglec-9 peptide (CAALSLSWAGLTLCPSK)] | 158 |
| CAALSLSWRGLTLCPSK (disulfide 1-14) [R3A Siglec-9 peptide (CAALSLSWRGLTLCPSK)] | 139 |
| CARLSLSWAGLTLCPSK (disulfide 1-14) [R9A Siglec-9 peptide (CARLSLSWAGLTLCPSK)] | 126 |
